Tests used:
theophylline aptamer = settings: cited from earlier work
E. coli membrane = settings: cited from earlier work
[1] = tested on: target mRNA encoding green fluorescent protein (GFP); test: Protein expression assay: in vivo GFP regulation activity of antiswitches in yeast cells; type: cell-based, S. cerevisiae; settings: for theophylline concentration at which the antiswitch switches GFP expression (inhibits expression / decreases to background levels): theophylline concentration in the media, s8 is an "on" switch; for switching theophylline concentration compared with s1-4: modified lower-affinity theophylline aptamer
Method: (§1) Yeast cells were inoculated into synthetic complete media supplemented with the appropriate drop out solution and sugar source (2% raffinose, 1% sucrose) and grown overnight at 30° C. Cells were back diluted into fresh media to an OD600 of 0.1 and grown at 30° C. For assaying antiswitch activity, this fresh media contained appropriate concentrations of theophylline (Sigma), caffeine (Sigma), tetracycline (Sigma), or water (negative control) and expression was induced to a final concentration of 2% galactose, or an equivalent volume of water was added (noninduced control). After growing for three hours, the GFP and Venus levels were assayed on a Safire (Tecan) fluorescent plate reader set to the appropriate excitation (GFP-485 nm; Venus-515 nm) and emission (GFP-515 nm; Venus-[…]) wavelengths. For assaying the antiswitch temporal response, cells were back diluted into fresh media containing 2% galactose. After growing in inducing media for three hours, theophylline or water was added and fluorescence was monitored over time. Fluorescence was normalized for cell number by dividing relative fluorescence units (RFUs) by the OD600 of the culture.
The expression of antiswitches in S. cerevisiae was accomplished using a novel non-coding RNA (ncRNA) expression construct similar to a previously described system (Taira et al., Nucleic Acids Res 19, 5125-30 (1991)) (see FIG. 6). Briefly, the RNA to be expressed is cloned between two hammerhead ribozymes known to self-cleave in vivo (Samarsky et al., Proc Natl Acad Sci USA 96, 6609-14 (1999)). This dual hammerhead construct can be placed under the control of Pol II promoters, and when transcribed the flanking hammerhead ribozymes cleave out from the desired RNA at an efficiency greater than 99% (see FIG. 11). The construct enables creation of ncRNAs with defined 5′ and 3′ ends that are free of potentially interfering flanking sequences. Antiswitch s1 was expressed in this construct under control of a galactose-inducible (GAL1) promoter in yeast cells. A plasmid containing a yeast enhanced GFP (yEGFP) (Mateus et al., Yeast 16, 1313-23 (2000)) under the control of a GAL1 promoter was transformed into the same cells (FIG. 1a).

GFP mRNA = test: RNA quantification by qRT-PCR of antiswitch s1 and target mRNA; type: cell-based, S. cerevisiae
Method: Yeast cells were grown according to methods detailed in protein expression assays. Total RNA was extracted using standard acid phenol extraction procedures (Caponigro et al., Mol Cell Biol 13, 5141-8 (1993)). Briefly, cells were pelleted and frozen in liquid nitrogen. Pellets were resuspended in a 50 mM NaOAc (pH 5.2) and 10 mM EDTA buffer. Cells were lysed by the addition of SDS to a final concentration of 1.6% and equal volume of acid phenol. Solutions were kept at 65° C. with intermittent vortexing for 10 minutes. Following cooling on ice, the aqueous phase was extracted and further extraction was carried out with an equal volume of chloroform. RNA samples were ethanol precipitated and resuspended in water. Total RNA was quantified by OD260 readings. RNA samples were DNased (Invitrogen) according to manufacturer's instructions. cDNA was synthesized using gene-specific primers (see FIG. 13) and Superscript III reverse transciptase (Invitrogen) according to the manufacturer's instructions. qRT-PCR was performed on this cDNA using an iCycler iQ system (BioRAD). Samples were prepared using the iQ SYBR green supermix and primer pairs specific for different templates (see FIG. 13) on dilution series of the cDNA, according to the manufacturer's instructions. Data was analyzed using the iCycler iQ software.

[2] = Structural probing of antiswitch by nuclease mapping (RNase T1) with theophylline alone
Method: Antiswitch and target sequences were PCR amplified with primers containing a T7 polymerase promoter. RNA was transcribed using Ampliscribe T7 transcription kits (Epicentre) according to manufacture's instructions, except that transcription was carried out at 42° C. and for gel-shift assays antiswitches were radiolabeled by the addition of [α-^32P]-UTP to the transcription mix. The RNA was purified on a 15% denaturing gel, eluted, ethanol precipitated, and resuspended in water. RNA was quantified by OD260 readings. For nuclease mapping, antiswitches were 5′ end labeled with fluorescein (Molecular Probes) by incubating 25 μg of RNA with phosphate reactive label, dissolved in DMSO (Sigma), in labeling buffer (0.12 M methylimidazole pH 9.0, 0.16 M EDAC) for four hours, according to manufacturer's instructions. Labeled RNA was purified by ethanol precipitation and run on a 12% denaturing gel. Fluorescent bands were excised from the gel, eluted into water for three hours at 37° C., and ethanol precipitated.
For nuclease mapping, fluorescein-labeled antiswitch RNA was resuspended in buffer (50 mM Tris-HCl pH 8.0, 100 mM NaCl, 5 mM MgCl2), denatured at 65° C. for three minutes, and allowed to slow cool to room temperature. Antiswitch RNA was incubated with varying concentrations of theophylline at room temperature for 15 minutes. RNase T1 (Ambion) was added to the antiswitch-ligand mixture and incubated at room temperature for 15 minutes. Cleavage products were visualized using laser-induced fluorescence capillary electrophoresis on a P/ACE MDQ machine (Beckman) using a single-stranded nucleic acid analysis kit (Beckman) according to manufacturer's instructions.

[3] = tested on: yellow fluorescent variant protein (Venus) mRNA target; test: Protein expression assay: in vivo Venus (YFP) regulation by antiswitches in yeast cells; type: cell-based, S. cerevisiae
Method: as §1
To illustrate this we introduced into cells two switches each responsive to a different effector molecule and each regulating the protein expression of a different mRNA target: s1, a theophylline responsive GFP regulator, and s9 (see FIG. 9), a tetracycline responsive yellow fluorescent variant protein (Venus) (Nagai et al., Nat Biotechnol 20, 87-90 (2002)) regulator (FIG. 5a). Changes in the targeting capabilities of these molecules were made by swapping out the antisense stem and switching aptamer stem while keeping the remainder of the aptamer module the same. Concurrent expression of these two antiswitches with a plasmid carrying both GFP and Venus allowed for an assay of the simultaneous regulation of gene expression by modular antiswitch design. […] Furthermore, the addition of both ligands decreased expression of both GFP and Venus. […]

[4] = cells with s1 and s9, plasmid carrying both GFP and Venus
[5] = theophylline and tetracycline, cells with s1 and s9

## Cn1c(=O)c2[nH]cnc2n(C)c1=O [theophylline]
Theophylline aptamer
  Kd: 0.29 µM
E. coli membrane
  drop in theophylline concentration across the E. coli membrane: > 1,000 fold

## s8: redesigned "on" antiswitch regulator responsive to theophylline, SEQ ID NO: 8 (ACCUUUAGACAUUUAGAUACCAGCAUCGUCUUGAUGCCCUUGGCAGCUAAAUGUC; RNA, backbone not given here)
[1]
  theophylline concentration at which the antiswitch switches GFP expression (inhibits expression / decreases to background levels): around 1 mM

## Cn1c(=O)c2c(ncn2C)n(C)c1=O [caffeine]
Theophylline aptamer
  binding to the theophylline aptamer: does not bind

B1: s1: theophylline-responsive "off" antiswitch RNA targeting GFP mRNA, SEQ ID NO: 1 (nucleic acid)
chain: ACCUUUAGACAUUUACCUCUAAAUGUCUAAAGGUGAUACCAGCAUCGUCUUGAUGCCCUUGGCAGCACCUUUAG
modifications: chemistry not given here
GFP mRNA; cells harboring s1, absence versus high levels of theophylline
  relative levels of target transcript: did not change significantly
GFP mRNA; same promoter for antiswitch and target
  steady-state relative level of antiswitch versus target levels: approximately 1,000 fold
[1]; caffeine as negative control effector
  GFP expression on addition of caffeine: does not change expression levels
[1]; [4]
  GFP expression on addition of theophylline: decreased
[1]; [5]
  GFP expression on addition of both ligands: decreased
[2]; 2 mM theophylline
  antisense domain (peak 1) RNase T1 cleavage: appearance of peak 1
  switching aptamer stem (peak 2) RNase T1 cleavage: absent
[2]; absence of theophylline and 200 μM theophylline
  switching aptamer stem (peak 2) RNase T1 cleavage: cleaved
[3]; [4]
  Venus expression on addition of theophylline: unaffected

B2: s4: destabilized antiswitch construct with altered loop sequence (U18 to C), SEQ ID NO: 4 (nucleic acid)
chain: ACCUUUAGACAUUUACCCCUACAUGUCUAAAGGUGAUACCAGCAUCGUCUUGAUGCCCUUGGCAGCACCUUUAG
modifications: RNA, backbone not given here
[1]
  theophylline concentration at which the antiswitch switches GFP expression (inhibits expression / decreases to background levels): 0.1 mM

B3: s2: destabilized antiswitch construct based on s1 (A21 to C), SEQ ID NO: 2 (nucleic acid)
chain: ACCUUUAGACAUUUACCUCUACAUGUCUAAAGGUGAUACCAGCAUCGUCUUGAUGCCCUUGGCAGCACCUUUAG
modifications: RNA, backbone not given here
[1]
  theophylline concentration at which the antiswitch switches GFP expression (inhibits expression / decreases to background levels): greater than 0.2 mM

B4: s3: stabilized antiswitch construct, antisense stem five nucleotides longer than s1, SEQ ID NO: 3 (nucleic acid)
chain: ACCUUUAGACAUUUAAUUAACCUCUUAAUUAAAUGUCUAAAGGUGAAGAUACCAGCAUCGUCUUGAUGCCCUUGGCAGCUUCACCUUUAG
modifications: RNA, backbone not given here
[1]
  theophylline concentration required to switch, relative to s1: roughly 1.5 fold
  theophylline concentration required to switch, relative to s2: ~6 fold
  theophylline concentration at which the antiswitch switches GFP expression (inhibits expression / decreases to background levels): approximately 1.25 mM
[1]; absence of theophylline
  decrease (inhibition) of GFP expression from control/full expression levels in the "off" state: 10%

B5: s5: antiswitch with aptamer domain having 10-fold lower affinity to theophylline than s1, SEQ ID NO: 5 (nucleic acid)
chain: ACCUUUAGACAUUUACCUCUAAAUGUCUAAAGGUGAUACCACGCGAAAGCGCCUUGGCAGCACCUUUAG
modifications: RNA, backbone not given here
[1]
  theophylline concentration required to switch, relative to s1: ~10 fold
  switching theophylline concentration compared with s1-4: higher theophylline concentrations
Theophylline aptamer
  Kd of aptamer domain for theophylline relative to the aptamer used in s1 (higher Kd / lower affinity): ~10 fold

B6: s6: destabilized modified theophylline aptamer antiswitch based on s5, SEQ ID NO: 6 (nucleic acid)
chain: ACCUUUAGACAUUUACCUCUACAUGUCUAAAGGUGAUACCACGCGAAAGCGCCUUGGCAGCACCUUUAG
modifications: RNA, backbone not given here
[1]
  switching theophylline concentration compared with s1-4: higher theophylline concentrations

B7: s9: tetracycline-responsive Venus (YFP) regulator antiswitch, SEQ ID NO: 9 (nucleic acid)
chain: UUGCUCACCAUGGUCCUCACCAUGGUGAGCAAAAAACAUACCAGAUCGCCACCCGCGCUUUAAUCUGGAGAGGUGAAGAAUACGACCACCUUUGCUCAC
modifications: chemistry not given here
[1]; [4]
  GFP expression on addition of tetracycline: not affecting
[3]; [4]
  Venus expression on addition of tetracycline: decreased
[3]; [5]
  Venus expression on addition of both ligands: decreased

Reference: patent publication US9315862B2, “Aptamer regulated nucleic acids and uses thereof” (California Institute of Technology, priority 2004, dated 2016)
